Values quoted from earlier work as cited in article PMC4554539.

Experiments:
[1] = biological target: IL18 receptor (Homo sapiens) (UniProt Q13478); assay: binding to L428 cells
[2] = biological target: IL18 receptor (Homo sapiens) (UniProt Q13478); assay: binding to transfected COS-1 cells

Chain of IL18 (Q14116 37-193): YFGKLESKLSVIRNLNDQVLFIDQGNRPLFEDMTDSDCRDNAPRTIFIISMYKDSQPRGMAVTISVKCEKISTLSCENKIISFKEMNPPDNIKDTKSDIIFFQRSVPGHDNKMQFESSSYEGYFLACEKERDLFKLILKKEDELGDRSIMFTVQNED
Chain of IL18 receptor (Homo sapiens) (Q13478 19-541): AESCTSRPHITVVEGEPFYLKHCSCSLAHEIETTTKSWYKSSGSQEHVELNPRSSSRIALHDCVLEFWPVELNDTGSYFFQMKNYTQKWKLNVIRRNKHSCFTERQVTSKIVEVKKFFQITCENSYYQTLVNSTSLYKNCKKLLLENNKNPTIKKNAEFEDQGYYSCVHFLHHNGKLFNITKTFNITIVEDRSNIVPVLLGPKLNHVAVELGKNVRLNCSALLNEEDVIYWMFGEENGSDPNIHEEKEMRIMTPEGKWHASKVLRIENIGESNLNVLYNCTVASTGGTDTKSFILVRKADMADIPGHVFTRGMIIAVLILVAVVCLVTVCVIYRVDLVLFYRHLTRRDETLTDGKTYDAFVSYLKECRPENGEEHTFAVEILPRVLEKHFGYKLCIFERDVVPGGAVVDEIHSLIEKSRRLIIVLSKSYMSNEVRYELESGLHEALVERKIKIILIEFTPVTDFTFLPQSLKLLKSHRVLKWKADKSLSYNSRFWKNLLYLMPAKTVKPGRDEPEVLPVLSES

- Kd [1]: 18.5 nM
- Kd [2]: 46 nM
Substance: IL18 (from UniProt Q14116)
